{"source": "the DeepSol protein solubility set"}
{"assay": "soluble on expression in E. coli; label from the status in PepcDB or PDB records"}
{"sequence": "MSLKWLKKQAELYPQKQFLNDSTFAQINQEVNKMAEHLAPLIDNQSRVALLSENSVEMAVVLFALLGLSKEVLLLNRHLTEYELADQIKELKIDKVFTSDLLTEKVTDSISFSEIWTSNPCPVSLSADFPDEKIAVIMNTSATTGKFKSVPITWGMISNHVKASKETLGAYDNDNWLVILPMFHVSGLSIIMRTLYNATSATVVDKFDENQLLEMINSGKINMVSLVPTLLTRIADKLHSNNLRLILLGGEFIPQPLIKKCQELGLPIYKTYGMTESFSQSVTFNILDFPDKTSSVGRPLPGVEIEIRQADLAGVGEIWLKSPMLMKAYLGQKPYGTAFETGDIGYLDTDGFLYLLNRRKDIIISGGENIYPKEIEDLVYSLPEIKECALVAKPDAKWGQVPILFVSGNISQEKLENFLTEKLAKYKRPQSITFMDELPKNASGKILRKELKEGHHHHHH", "soluble on expression in E. coli": "soluble"}
{"sequence": "MSLLALGIEGTAHTLGIGIVSEKKVLANVFDTLTTEKGGIHPKEAAEHHARLMKPLLKKALEKAGISMDDIDVIAFSQGPGLGPALRVVATAARALAIRYNKPIVGVNHCIAHVEITKMFGIKDPVGLYVSGGNTQVLALEGGRYRVFGETLDIGIGNAIDVFARELGLGFPGGPKLEKLAEKGKNYIDLPYAVKGMDLSFSGLLTEAIRKYRSGKFRVEDLAYSFQETAFAALVEVTERALAHTEKKEVVLVGGVAANNRLREMLKIMAEDRGVKFFVPPYDLCRDNGAMIAYTGLRMYKAGISFPLEKTIVKQKFRTDEVEITWEGHHHHHH", "soluble on expression in E. coli": "not soluble"}
{"sequence": "MSLLLSATTSIHDLVTSHPYLIEVLADYAPAFAKLRNPLLRNTLGRVATLQQAADLAGLELTGLMAHLARAIMEHTKEAVTLVPRGAETPAHAVADGDSGCGGCTPRPAEGNTADRATRLATLRALLERLHQGTPLADLKEAFASAVGGISAAEVASLEKELVAGGVAETEIKRLCSLHVDIFREALAPQHVPDMPPGHPVHTYRAENAEATRIADEIISQIDRMRSVPGDTESPLDELAWSFSRRHVADLLADLAHVERHYTRKEMQLFPMLEENGIEAPPKVMWEVHDDIRSLLRKARETVEGPSPVAAATVARDAALAVKDMVDKEETVLFPMALESLTEAQWGRVRHGEDEIGYAWVTPEGEWTPQAADTPESLTMEGAATGTPDRVTLGTGTLTVETLDRMLRTLPLDLSLVDAEDRVAYYTDSTHRIFPRSAGVIGRNVRNCHPPKSVHMVEEILARFKTGERDEAAFWIELGGRFLHIRYFAVRSDEGRYLGCLEVAQDVTDIRALSGQRRLLDWNEGHHHHHH", "soluble on expression in E. coli": "not soluble"}
{"sequence": "MSLLRPLSKTDCPMLQEINAKALGYLVSLDLLERQYERLIEDCHHYFLAYADKDTNQLLGYVHAERYETLYASDGLNLLGLAVLPAYQRRGIGSALLRALESQARQEGIAFIRLNSASHRKEAHAFYRNLDYADDKTQLRFIKNLQGDDNDFEGHHHHHH", "soluble on expression in E. coli": "soluble"}
{"sequence": "MSLLSYRHGFHAGNQADVFKHSALFSFLKVYTQKQKPFTAFDLNAGSASYNLLSEWSLKTGEAEEGIIRFLDLYKKEKLPLPIPEGFKAYLDFCLKNYDENSSYAGSPEIIRSFLQKESNLILCDLHSAEAEKLKELYKRVENVHVHKRDCYEAVRALTPPLPIRGFALFDPSYEVDSDYTAIAESVEKVCKKWPIGIFIIWYPILNHKTEECRNLKDRISKAMNNKVLNIEVKHFSNKIDSENEYGLQGSGLLITNPPWGLEEKLKEICEYVEKVSAGLDEGHHHHHH", "soluble on expression in E. coli": "soluble"}
{"sequence": "MSLMSNDRKVTEIENSPVTEVRPEEHAWYPDDSALAAPPAATPAAISDQLPSDRYLNRELSWLDFNARVLALAADKSMPLLERAKFLAIFASNLDEFYMVRVAGLKRRDEMGLSVRSADGLTPREQLGRIGEQTQQLASRHARVFLDSVLPALGEEGIYIVTWADLDQAERDRLSTYFNEQVFPVLTPLAVDPAHPFPFVSGLSLNLAVTVRQPEDGTQHFARVKVPDNVDRFVELAAREASEEAAGTEGRTALRFLPMEELIAAFLPVLFPGMEIVEHHAFRITRNADFEVEEDRDEDLLQALERELARRRFGSPVRLEIADDMTESMLELLLRELDVHPGDVIEVPGLLDLSSLWQIYAVDRPTLKDRTFVPATHPAFAERETPKSIFATLREGDVLVHHPYDSFSTSVQRFIEQAAADPNVLAIKQTLYRTSGDSPIVRALIDAAEAGKQVVALVEIKARFDEQANIAWARALEQAGVHVAYGLVGLKTHCKTALVVRREGPTIRRYCHVGTGNYNSKTARLYEDVGLLTAAPDIGADLTDLFNSLTGYSRKLSYRNLLVAPHGIRAGIIDRVEREVAAHRAEGAHNGKGRIRLKMNALVDEQVIDALYRASRAGVRIEVVVRGICALRPGAQGISENIIVRSILGRFLEHSRILHFRAIDEFWIGSADMMHRNLDRRVEVMAQVKNPRLTAQLDELFESALDPCTRCWELGPDGQWTASPQEGHSVRDHQESLMERHRSEGHHHHHH", "soluble on expression in E. coli": "soluble"}
{"sequence": "MSLMSSDQQGKCPVDEETKKLWLREHGNEAHPGATAPGNQLECSANPQDNDKTPEYHTTVDLSQSREVSTIPRTNSDRNWIYPSEKQFYEAMMKKNWDPNSDDMKVVVPLHNSINERVWNYIKSWEDKQGGEACGGIKLTNFKGDSKKLTPRAWFRSRILHLAKPFDRHDWQIDRCGKTVDYVIDFYSTDLNDANSQQQPLIYLDVRPKLNSFEGFRLRFWKSLGFEGHHHHHH", "soluble on expression in E. coli": "soluble"}
{"sequence": "MSLMTKENNKSAAETEEWKKEYALRDELLKQEKENKKFEKELYQKQNKVRQAENKLKKEKSEYYNVLEDTEKYRMYIGEVGVQGEGVEVTLEDASYIPEGENVNSYIVHESHIFQVVNELYISGAALVAVNGQRLTHDSYIKCNGPVVTVDGVQHPAPFTVSAIGDPDVLLPSLNIAGGLIDQLSMDHISVSAEKEKNVQMKPILKTKEEGHHHHHH", "soluble on expression in E. coli": "soluble"}
{"sequence": "MSLMYSRKFQILKENIGLYHGDFMDFEVYDTEYMSIIFVKDRLDYTGKEIEPLWAFKTFDIQKDSIVVFRGRMEVTTENMKDLKDIKREKDIKTPIKSEDAINFVVEHFDVIDLKTIYLRQRLLVFIAKEVIESYNIKLKRDGDDLYFEDKKLSVCIACKGTVSAKIHLGINVKSKGAEHVKIIGLEDLGIKDIDKVMREIAINYAKEIDKIERDLRKTLPLIEGHHHHHH", "soluble on expression in E. coli": "soluble"}
{"sequence": "MSLNAIHRILMTTDGSITAIIEAVTQKKVEVETLEQKIIRADRELAELLEIDEGDEVNYRVVYLRANGEIYAKAISFTPLKRLENSFREDLMRADIPIGKIMRKHNIEARREIRWSRVEEADLALAKELGIADRRVISRNYNIIHRGKVLINITEFFPMERFRIEGYHHHHH", "soluble on expression in E. coli": "soluble"}
{"sequence": "MSLNAQTLLANVAELVKTKLKPLVDDIDRKGYYPEAFMRELGAIGAVGIEAEGGNGLGLATRIAVLREIGKECGATSFSAWCQAACAWYLHQTPNQAVKDKYLADILQGKVLAGTGMSNTVKHLAGIEKHNLQAECVEGGYTVNGALPWVSNIGEDHIWANTAQIGGGYVMFITGGQREGVSLQNCPEFCALEGTHTFSLNFKDVFIPDEDIIAAPEQFAGYIQSIKAGFILLQIGIGAGVIDGSLGIIRLVNVVNAEVNSYLDDGYDSLKARLDGAWAETERLAGLAWDNTPDNLATLKLREAAAVLALAAAQSAALHSGAKGYLMRSPAQRRVGEAMFVAIVTPAIKHLCKEIAAIEAAKEGHHHHHH", "soluble on expression in E. coli": "not soluble"}
{"sequence": "MSLNGTSGSVARQLAARRIIGTSWRLFVAYLKWSGVLEVSFKGVEKLNRPGQLILANHPSLLDVVLLVGHVPEMNCIVKKDLQHNPAMSSQIKGAGYIPNEESEAMLETVKAVFDSGQSLLVFPEGTRTGWDGRVKMHRGAVSLGLRYAEVITPVCIKMNPPNFKKGQPWYRIPPKRIRYEITVGDDILPQDWLAEKPLPIAARRLNEYLQDYFTRKTIEGHHHHHH", "soluble on expression in E. coli": "not soluble"}
{"sequence": "MSLNIHPMWNTYPTLSKELTTTLRLMEQAVQIDNQEIQAAVHDMIHSGGKLLRPAYQLLFSYFGEQRDPKKATALAASIELLHTATLVHDDIVDEADTRRGLPTLRSRFGNSTAVYTGDYLFVCCFKLLSDYSSSLKSIQLNSRSMEKVLTGELGQMDNRYNFEVTIDQYLKNISGKTAELFALSCFVGAYESGTSQRFAKRCGEIGENIGLAFQIIDDILDYTQTADAIGKPVLEDVRQGVYSLPLIYALEANREVLLPLLMKKEALTDEETQEIYRLVHELGGVEKAQELATHYTEKALKEISKLPETKAQAKEQLYEITQTILTREGHHHHHH", "soluble on expression in E. coli": "soluble"}
{"sequence": "MSLNIISVGVNHKTAPIEIRERIALSEVQNKELVTDLVSSGLASEAMVVSTCNRTELYVVPGMPEVNCDYLKDYIISYKNARNAVRPEHFFSRFYCGTARHLFEVSCAIDSLVLGEGQILGQVKNAYRIAAEVGTAGILLTRLCHTAFSVAKKVKTRTKLMEGAVSVSYAAVELAQKIFSNLSMKKVLLIGAGETGELAAKHMYAKNARNIVITNRTQSKAEALAEELGTNRVLPYESYKEHLHEFDIIITAVSTKEYILNAAEMQQSMAKRRLKPVIILDLGLPRNVDPEVGALQNMFLKDIDALKHIIDKNLERRRAELPKVKAIIDEELVAFGQWLNTLKVRPTIVDLQSKEGHHHHHH", "soluble on expression in E. coli": "soluble"}
{"sequence": "MSLNILVIGTGAIGSFYGALLAKTGHCVSVVARSDYETVKAKGIRIRSATLGDYTFRPAAVVRSAAELETKPDCTLLCIKVVEGADRVGLLRDAVAPDTGIVLISNGIDIEPEVAAAFPDNEVISGLAFIGVTRTAPGEIWHQAYGRLMLGNYPGGVSERVKTLAAAFEEAGIDGIATENITTARWQKCVWNAAFNPLSVLSGGLDTLDILSTQEGFVRAIMQEIRAVAAANGHPLPEDIVEKNVASTYKMPPYKTSMLVDFEAGQPMETEVILGNAVRAGRRTRVAIPHLESVYALMKLLELRTSKSLWGNEGHHHHHH", "soluble on expression in E. coli": "soluble"}
{"sequence": "MSLNIVSMAREASSHKNSGKKKAIVKFIIRTLLHYSYIKKMNDNFAHDERKMLFKKQPNFLTKCITPYLRNGLSRQEIIDILVKHYDWFEYKFSTDARHQIYDDVLTLYKLEIDEQDYLINLSFDRNSRKEGELTLTLTDSKYNKYYVLAFTVVDNDIYIGCMQGGANDNGFSKLFTKSIYGLRPKSFMVETLRLLAVNLNINHIYAVKNSAHIYTAKRYGKKSKMIGLDYDRLWKEHNGESHNDYFYVLPIKSERKAMEDIKRPKRKMYRERYAWLDNYDKELKNTLDYICNEGHHHHHH", "soluble on expression in E. coli": "not soluble"}
{"sequence": "MSLNKIKRITAYKIDLPLKEGSYNWSEGKSVSVFDSTVIAVETENGTIGYGECCPLGPFYLPSYAEGVRAGIKELGPHLIGLDATNLFYLNHIMDRSLKGHPYVKSPIDVACWDIKGKTAGLPVSNLLGGVYDEDFILYRAISQDQPEAMADKVKEYRDQGYRRFQLKVGGNADEDIKRIRSVAEKMETGDKLIADANTGWLTHEAVRVVNGVSDIDVYIEQPCLSYDECFAVRKKTNHPFILDESINNMRTLLKAYHDQAMDAVNIKISKFGGITKAALARDICSELGIAMTIEDTWGGDIVTAAIAHLAHTTDPKLLFTATDFNSYVTVDIASGAPKRENGRMKSSKDPGLGIKPLSEVLGDSVVDIEGHHHHHH", "soluble on expression in E. coli": "not soluble"}
{"sequence": "MSLNKVITKKQTIPAFFKGNAPYIFAHRGGMALRPEQTQLAFDYAKQLGVDGFETDVRLTKDQQLIVFHDATVDRTTNGSGKVSAHTLAELKKLDAAYHFKDINGLTPYRGHAHTTILTFDELLKQYPDMYINVDLKDAPESYEGSIAPQIMFDTIAENQAFDRVLVTSFYKEQIVRFNKIAQGSVAIGASQQEVTEAFLKYHLLGGRYYQPLAQTFQMPTHFKGIDLTSSRFIKWLNDMNIIPGYYGVNSIDLMNDLYQKGAHTIVTDRPDLAQQFKQTIPNKEGHHHHHH", "soluble on expression in E. coli": "soluble"}
{"sequence": "MSLNLRESFISKFAASFVKPRFEIWFAAVLIPENDQAFWVRYSTLNPRNNRDLFPMGTLWVSLFDRKNPKNHRTTTQSFPYEEVLIKEHAIEFPEASVGPDHMSGKIQTSMSEDLAWDLEFRHKLEPTGHLPRWLEKTPINHIWGTNRVSELFWTFVPKFDDDPDDWSMEIVTVRPQPFTPTLTFVTLLKRGIPIHQHSIFRSLRSSTKIEYPKLHFKTRLDDYEISVESEMDKDQIAGYIYRDPDGSPRYIEQSDIGNVKCVIRHRRKETVLNAKQAAGVEFHGLRPWRKDHEYLDPYQTEGHHHHHH", "soluble on expression in E. coli": "not soluble"}
